According to CN116284408A (SUNSHINE GUOJIAN PHARMACEUTICAL SHANGHAI CO LTD, dated 2023):
Changes are numbered by the printed parent chain.

B1: ch-19E11 (antibody, human IgG1, kappa, V domains shown)
VH: EVQLQQSGPELEKPGASVKISCKASGFSFTGYNMNWVKQSNGKSLEWIGNIDPYYGGTTYNQKFKGKATLTVDISSSTAHMELKSLTSEDSAVYFCARSVTTVGYPMDYWGQGTSVTVSS
VL: DIVMTQSPSSLAMSVGQKVTMNCKSSQSLLNSYNHKNCLAWYQQKPGQSPKLLISFASARESGVPDRFIGSGSGTDFTLTISSVQAEDLADYFCHQHYTSPLTFGAGTKLELKR
notes: also called 嵌合抗体ch-19E11
B2: ch-27A3 (antibody, human IgG1, kappa, V domains shown)
VH: QVQLQQPGAELVRPGASVKLSCKASGYSFTIYWMHWVKQRPGQGLEWIGMSHPSDSESRLNQKFKDKATLTVDKSSSTAYMQLSSPTSEDSAVYYCSRPYYGSSAWFADWGQGTLVTVSA
VL: DIVMTQSPSSLAMSVGQKVTMSCKSSQSLLNSSNQKNYLAWYQQKPGQSPKLLIYFASTRESGVPDRFIGSGSGTDFTLSISSVQAEDLADYFCQQHYSFPLTFGAGTKLELRR
notes: also called 嵌合抗体ch-27A3
B3: hu-27A3 (antibody, human IgG1, kappa, V domains shown)
VH: QVQLVQSGAEVKKPGASVKVSCKASGYSFTIYWMHWVRQAPGQGLEWIGMSHPSDSESRLNQKFKDRATLTVDKSTSTAYMELSSLRSEDTAVYYCSRPYYGSSAWFADWGQGTLVTVSA
VL: DIVMTQSPDSLAVSLGERATINCKSSQSLLNSSNQKNYLAWYQQKPGQSPKLLIYFASTRESGVPDRFSGSGSGTDFTLTISSLQAEDVAVYYCQQHYSFPLTFGAGTKLELRR
notes: Humanized IgG1/kappa, made in HEK-293E cells; also called 27A3人源化抗体; 人源化后的27A3
B4: hu-19E11 (antibody, human IgG1, kappa, V domains shown)
VH: QVQLVQSGAEVKKPGASVKVSCKASGFSFTGYNMNWVRQAPGQSLEWIGNIDPYYGGTTYNQKFKGRATLTVDISISTAYMELSRLRSDDTAVYFCARSVTTVGYPMDYWGQGTSVTVSS
VL: B3 VL with S33Y, Q35H, Y38C, Y55S, T59A, Y93F, Q95H, S99T, F100S, R113K
notes: Humanized IgG1/kappa, made in HEK-293E cells; also called 19E11人源化抗体; 人源化后的19E11
B5: 8H2 (antibody, V domains shown)
VH: EVNLVESGGGLVKPGGSLKLSCAASGFAFSNYDMSWVRQTPEKRLEWVATISGGGSYTYYPDNVKGRFTISRDNAMNTLYLQMSSLRSEDTALYYCASVNWGFPYWGQGTLVTVSA
VL: DIVMSQSPSSLAVSIGEKVTMSCKSSQSLLYSRNQKNYLAWYQQKPGQSPILLIYWTSTRESGVPDRFTGSGSGTDFTLTISGVKAEDLAVYYCQQYYTSPWTFGGGTRLEIK
B6: 56E8 (antibody, V domains shown)
VH: QVQLKESGPGLVAPSQSLSITCTVSGFSLTAYGVHWVRQPPGKGLEWLGGIWAGGSTKSNSALMSSLSISKDNSKSQVFLKMNSLQTDDSAMYYCARALFYGYFDVWGAGTTVTVSS
VL: DIVMTQSQKFMSTSVGDRVSVTCKASQSVDTNVAWYQQRPGQSPEALIFSASYRYSGVPDRFTGSGSGTDFTLTISNVQSEDLAEYFCQQYNVYPYTFGGGTNLEIK
B7: 50A5 (antibody, V domains shown)
VH: B6 VH with S56N, K58Q, N60H, S66R, S68T, N73I, K81R, Y103N
VL: B6 VL with K9R, N32S, V93S
B8: 11C8 (antibody, V domains shown)
VH: B6 VH with K58Q, S66R, N73S, K81R, Y103N
VL: B6 VL with N32S, S76N, V93S
B9: 27A3 (antibody, V domains shown)
VH: B2 VH
VL: DIVMTQSPSSLAMSVGQKVTMSCKSSQSLLNSSNQKNYLAWYQQKPGQSPKLLIYFASTRESGVPDRFIGSGSGTDFTLSISSVQAEDLADYFCQQHYSFPLTFGAGTKLELR
notes: Mouse monoclonal antibody from a hybridoma, purified on Protein G; also called 鼠源抗体27A3; 杂交瘤抗体27A3
B10: 23F6 (antibody, V domains shown)
VH: QVQLKESGPGLVAPSQSLSITCTVSGFSLTAYGVHWVRQPPGKGLEWLGGIWAGGNTQSHSALMSRVSISKDISKRQVFLKMDRLQTDDSAIYYCARALFYGNFDVWGAGTTVTVSS
VL: B6 VL with K9R, N32S, V93S, I106M, K107R
B11: 15D10 (antibody, V domains shown)
VH: QVQLQQPGAELVKPGASVKMSCKASGYTFTTYWMHWVKQRSGQGLEWIGVIDPSDSYTRYNQKFKDKATLTVDTSSSTAYMHLTSLTSEDSAVYYCTRSGIGNSFIMDYWGQGTSVTVSS
VL: QVVLTQSPAIMPAFPGEKVTISCSASSSVIYMFWYQQKPGSSPKPWIYRTSNLASGVPARFTGSGSGTSYSLTISSMEAEDAATYYCQQYHSYPLTFGVGTKLELK
B12: 51E12 (antibody, V domains shown)
VH: QVQLQQSGPELVKPGASVKISCKVSGNAFSLSWMNWVKQRPGQGLEWIGRIYPGDGDSNYNGKFKGKATLTADKSSSTVFMQLSSLTSVDSAVYFCANYYGSSSWFVYWGQGTLVTVSA
VL: DVVMTQTPLSLPVSLGDQASISCRSSQSLVHSYGNTYLHWYLQKPGQSPKLLIYKVSNRFSGVPDRFSGSGSGTDFTLKISRVETEDLGVYFCSQSTHFPWTFGGGTKLEIK
B13: 45D1 (antibody, V domains shown)
VH: EMQLVESGGDLVKPGGSLKLSCAVSGFTFSTYDMSWIRQTPDKRLEWVATISSGGSYTYYPDSVKGRFTISRDNAKNTLYLQMSSLQSEDTAIYYCASLNWGFDHWGQGTTLTVSS
VL: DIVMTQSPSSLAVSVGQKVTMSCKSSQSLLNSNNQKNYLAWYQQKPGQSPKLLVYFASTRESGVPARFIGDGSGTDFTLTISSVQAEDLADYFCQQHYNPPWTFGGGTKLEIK
B14: 19E11 (antibody, V domains shown)
VH: B1 VH
VL: DIVMTQSPSSLAMSVGQKVTMNCKSSQSLLNSYNHKNCLAWYQQKPGQSPKLLISFASARESGVPDRFIGSGSGTDFTLTISSVQAEDLADYFCHQHYTSPLTFGAGTKLELK
notes: Mouse monoclonal antibody from a hybridoma, purified on Protein G; also called 鼠源抗体19E11; 杂交瘤抗体19E11

Assays:
人MUC17-Fc蛋白 [1] = target: T1, 人MUC17-Fc蛋白 (human, UniProt Q685J3 4131-4390); test: ELISA, coated MUC17 antigen, antibody titrated
T1 construct: range 4131-4390; No linker is described; also called MUC17抗原; not shown: C-terminal Fc tag

人MUC17-Fc蛋白 [2] = target: T1, 人MUC17-Fc蛋白; test: ELISA, coated MUC17 antigen, chimeric antibody titrated
[3] = target: T2, MUC17 on LS174T colorectal cancer cells (human, UniProt Q685J3 26-4493); test: flow cytometry on LS174T cells, chimeric antibody titrated
[4] = target: T2, MUC17 on LS174T colorectal cancer cells; test: flow cytometry on LS174T cells
[5] = target: MUC17 on LS174T colorectal cancer cells (human, UniProt Q685J3 26-4493); test: flow cytometry on LS174T cells, murine antibody titrated; parameters: Top: unit not given here
人MUC17-Fc蛋白 [6] = target: T1, 人MUC17-Fc蛋白; test: ELISA, MUC17-Fc coated, murine antibody titrated
[7] = target: T2, MUC17 on LS174T colorectal cancer cells; test: flow cytometry on LS174T cells, murine antibody titrated; parameters: Top: unit not given here; remark: listed apart in the source

Binder | EC50 (人MUC17-Fc蛋白 [1]) [nM] | EC50 (人MUC17-Fc蛋白 [2]) [nM] | EC50 [3] [nM] | EC50 [4] [nM] | EC50 [5] [µg/mL] | Top [5] | EC50 (人MUC17-Fc蛋白 [6]) [µg/mL] | Top (人MUC17-Fc蛋白 [6]) [OD450] | EC50 [7] [µg/mL]
B1 | 0.14 | 0.14 |  |  |  |  |  |  | 
B2 | 0.0785 | 0.0785 | 0.0435 |  |  |  |  |  | 
B3 | 0.0766 |  |  | 0.03 |  |  |  |  | 
B4 | 0.131 |  |  | 0.085 |  |  |  |  | 
B5 |  |  |  |  | 0.164 | 445 | 0.0556 | 2.74 | 
B6 |  |  |  |  | 0.11 | 296 | 0.0276 | 1.97 | 
B7 |  |  |  |  | 0.542 | 500 | 0.0813 | 2.64 | 
B8 |  |  |  |  | 0.87 | 469 | 0.108 | 2.25 | 
B9 |  |  |  |  |  |  | 0.0202 |  | 0.00656
B10 |  |  |  |  | 0.395 | 460 | 0.0623 | 2.88 | 
B11 |  |  |  |  | 3.43 | 382 | 0.0317 | 2.79 | 
B12 |  |  |  |  | 0.0472 | 878 | 0.0372 | 2.88 | 
B13 |  |  |  |  | 0.273 | 457 | 0.036 | 2.87 | 
B14 |  |  |  |  |  |  | 0.0376 |  | 0.024
